# Results reported in the RNAGym collection of RNA variant scans (doi:10.7554/elife.80360).
# B1: Twister Ribozyme (parent)
# chain: AACACUGCCAAUGCCGGUCCCAAGCCCGGAUAAAAGUGGAGGGGGCGG
# Variants of: B1
# Experiment: self-cleavage, relative activity (ratio to wild type); higher = more cleavage; co-transcriptional
row,Variant,self-cleavage
1,AACAGUGCCAAUGCCGGUCCCAAGCCCGGAUAAAAGUGGACGGGGCGG [C5G G41C],0.114
2,AACAGUGCCAAUGCCGGUCCCAAGCCCGGAUAAAAGUGGAUGGGGCGG [C5G G41U],0.154
3,AACAAUGCCAAUGCCGGACCCAAGCCCGGAUAAAAGUGGAGGGGGCGG [C5A U18A],0.118
4,AACAAUGCCAAUGCCGGGCCCAAGCCCGGAUAAAAGUGGAGGGGGCGG [C5A U18G],0.0654
5,AACAAUGCCAAUGCCGGUCCCAAGCCCGUAUAAAAGUGGAGGGGGCGG [C5A G29U],0.51
6,AACAAUGCCAAUGCCGGUCCCAAGCCCGAAUAAAAGUGGAGGGGGCGG [C5A G29A],0.362
7,AACAUUGCCAAUGCCGGUCCCAAGCCCGGAUAAAGGUGGAGGGGGCGG [C5U A35G],0.435
8,AACAAUGCCAAGGCCGGUCCCAAGCCCGGAUAAAAGUGGAGGGGGCGG [C5A U12G],0.42
9,AACAGUGCCAAUGCUGGUCCCAAGCCCGGAUAAAAGUGGAGGGGGCGG [C5G C15U],0.467
10,AACAGUGCCAAUGCAGGUCCCAAGCCCGGAUAAAAGUGGAGGGGGCGG [C5G C15A],0.251
11,AACAGUGCCAAUGCCGGUCCCAAGCCCAGAUAAAAGUGGAGGGGGCGG [C5G G28A],0.354
12,AACAAUGCCAAUGCCGGUCCCAAGCCCGGAGAAAAGUGGAGGGGGCGG [C5A U31G],0.524
13,AACAGUGCCAAUGCCGGUCCCAAGCCUGGAUAAAAGUGGAGGGGGCGG [C5G C27U],0.445
14,AACAGUGCCAAUGCCGGUCCCAAGCCAGGAUAAAAGUGGAGGGGGCGG [C5G C27A],0.103
15,AACAGUGCCAAUGCCGGUCCCAAACCCGGAUAAAAGUGGAGGGGGCGG [C5G G24A],0.0701
16,AACAGUGCCAAUGCCGGUCCCAAGCCCGGAUAAAAGUGGAGGGGACGG [C5G G45A],0.475
17,AACAGUGCCAAUGCCGGUCCCAAGCCCGGAUAAAAGUGGAGGGGUCGG [C5G G45U],0.369
18,AACAAUGCCAAUGCCGGUCCCAAGCCCGGAUAAAAGUUGAGGGGGCGG [C5A G38U],0.0941
19,AACAAUGCCAAUGCCGGUCCCAAGCCCGGAUAAAAGUCGAGGGGGCGG [C5A G38C],0.341
20,AACAAUGCCAAUGCCGGUCCCAAGCCCGGAUAAAAGUAGAGGGGGCGG [C5A G38A],0.206
21,AACAAUGCCAAUGCCGGUCCCAAGCCCGGAUAAAAGUGGAGGGGGCUG [C5A G47U],0.486
22,AACAGUGUCAAUGCCGGUCCCAAGCCCGGAUAAAAGUGGAGGGGGCGG [C5G C8U],0.294
23,AACAGUGGCAAUGCCGGUCCCAAGCCCGGAUAAAAGUGGAGGGGGCGG [C5G C8G],0.0701
24,AACAAUGCCAAUGCCGGUCCCAAGCCCGGAUAAAAGUGGAGGUGGCGG [C5A G43U],0.108
25,AACAAUGCCAAUGCCGGUCCCAAGCCCGGAUAAAAGUGGAGGAGGCGG [C5A G43A],0.1
26,AACAGUGCCACUGCCGGUCCCAAGCCCGGAUAAAAGUGGAGGGGGCGG [C5G A11C],0.298
27,AACAGUGCCAAUGGCGGUCCCAAGCCCGGAUAAAAGUGGAGGGGGCGG [C5G C14G],0.0784

row,Variant,self-cleavage
1,AACAGUGCCAAUGACGGUCCCAAGCCCGGAUAAAAGUGGAGGGGGCGG [C5G C14A],0.557
2,AACAUUGCAAAUGCCGGUCCCAAGCCCGGAUAAAAGUGGAGGGGGCGG [C5U C9A],0.349
3,AACAUUGCUAAUGCCGGUCCCAAGCCCGGAUAAAAGUGGAGGGGGCGG [C5U C9U],0.337
4,AACAGUGCCAAUGCCGGUCCCAAGCCCGGAUAAAAGUGGCGGGGGCGG [C5G A40C],0.198
5,AACAGUGCCAAUGCCGGUCCCAAGCCCGGAUAAAAGUGGGGGGGGCGG [C5G A40G],0.182
6,AACAGUGCCAAUGCCGGUCCCAAGCCCGGAUAAAAGUGGUGGGGGCGG [C5G A40U],0.0886
7,AACAGUGCCAAUGCCGGUUCCAAGCCCGGAUAAAAGUGGAGGGGGCGG [C5G C19U],0.504
8,AACAGUGCCAAUGCCGGUGCCAAGCCCGGAUAAAAGUGGAGGGGGCGG [C5G C19G],0.125
9,AACAGUGCCAAUGCCGGUACCAAGCCCGGAUAAAAGUGGAGGGGGCGG [C5G C19A],0.0784
10,AACAAUGCCAAUUCCGGUCCCAAGCCCGGAUAAAAGUGGAGGGGGCGG [C5A G13U],0.0864
11,AACAGCGCCAAUGCCGGUCCCAAGCCCGGAUAAAAGUGGAGGGGGCGG [C5G U6C],0.16
12,AACAGUGCCAAUGCCGGUCACAAGCCCGGAUAAAAGUGGAGGGGGCGG [C5G C20A],0.0467
13,AACAGUGCUAAUGCCGGUCCCAAGCCCGGAUAAAAGUGGAGGGGGCGG [C5G C9U],0.13
14,AACAGUGCCAAUGCCGGUCCCAAGCCCGGAUAAAAGUGGAGCGGGCGG [C5G G42C],0.226
15,AACAGUGCCAAUGCCGGUCCCAAGCCCGGAUAAAAGUGGAGUGGGCGG [C5G G42U],0.0923
16,AACAGUGCCAAUGCCGGUCCCAAGCCCGGAUAAAAGUGGAGAGGGCGG [C5G G42A],0.108
17,AACAAUGCCAAUGCCGGUCCCAAGCCCGGAUAAAAGUGGAGGGGGCGU [C5A G48U],0.577
18,AACAAUGCCAAUGCCGGUCCCAAGCCCGGAUAAAAGUGGAGGGGGCGA [C5A G48A],0.539
19,AACAGUGCCAAUGCCGGUCCCAAGCCCGGAUAGAAGUGGAGGGGGCGG [C5G A33G],0.637
20,AACAGUGCCAAUGCCGGUCCCCAGCCCGGAUAAAAGUGGAGGGGGCGG [C5G A22C],0.571
21,AACAGUGCCAAUGCCGGUCCCAAGCGCGGAUAAAAGUGGAGGGGGCGG [C5G C26G],0.122
22,AACAGUGCCAAUGCCGGUCCCAAGCCCGGAUCAAAGUGGAGGGGGCGG [C5G A32C],0.57
23,AACAGUGCCAAUGCCGGUCCCAAGCCCGGAUUAAAGUGGAGGGGGCGG [C5G A32U],0.515
24,AACAAUGCCAAUGCCGGUCCCAAGCCCGGAUAAAAGUGGAGAGGGCGG [C5A G42A],0.132
25,AACAAUGCCAAUGCCGGUCCCAAGCCCGGAUAAAAGUGGAGCGGGCGG [C5A G42C],0.184
26,AACAAUGCCAAUGCCGGUCCCAAGCCCGGAUAAAAGUGGAGGGGUCGG [C5A G45U],0.413
27,AACAAUGCCAAUGCCGGUCCCAAGCCCGGAUAAAAGUGGACGGGGCGG [C5A G41C],0.0838
